Assay results: a protein production outcome set (Wang et al. 2014)

Experiment: label from the status in PepcDB records
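Also: failed if final PepcDB status was selected cloned or expressed and not failed if soluble or beyond.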

| Sequence | protein production |
| --- | --- |
| MSVVDPSLIERIIRDDVRAMGAYHVPDSHGLVKLDAMENPYRLPPALRSELAARLGEVALNRYPVPSSEALRAKLKEVMQVPAGMEVLLGNGSDEIISMLALAAARPGAKVMAPVPGFVMYAMSAQFAGLEFVGVPLRADFTLDRGAMLAAMAEHQPAIVYLAYPNNPTGNLFDAADMEAIVRAAQGSVCRSLVVVDEAYQPFAQESWMSRLTDFGNLLVMRTVSKLGLAGIRLGYVAGDPQWLEQLDKVRPPYNVNVLTEATALFALEHVAVLDEQAAQLRAERSRVAEGMAAHGGVTVFPSAANFLLARVPDAAQTFDRLLARKVLIKNVSKMHPLLANCLRVTVSTPEENAQFLEAFAASLQD | not failed |
| MSVWLLQMKTNAIITDITKSIVKMDRILVYRHTNPDPDAIGAQFGLVALLKAAYPEKLVVAMAPVPGHLAWIDTTDEQLVTPQATDLVIAVDCANHERLAGELPTGAFVIKIDHHPNHDPYGQLNWVDETYSSCSEMIYELAQAGCFTVTAAVATKLYAGIIGDTVRFSTPETSTRTLKIASALAATDIDIATISHHEMDLTPALSKLYGYVLSEQTIEPSGLAHVVLPQRIFSDLSLEYGDEDALVPLPGNLTTVKVWLFFIETPQGQYRVHFRSKAINVNAVAKAFNGGGHPLASGAFVPDLATVGQVIEQMQAQVLAATAVDLEHHHHHH | failed |
| MSVYHHILLAVDFSSEDSQVVQKVRNLASQIGARLSLIHVLDNIPMPDTPYGTAIPLDTETTYDAMLDVEKQKLSQIGNTLGIDPAHRWLVWGEPREEIIRIAEQENVDLIVVGSHGRHGLALLLGSTANSVLHYAKCDVLAVRLRDD | not failed |
| MSWSKVKYFFFDTPEEKEAAQYGYEKEQTDMKKQQDPPEQQDVTFPKAQPKQNVVSIETAKQSSKVVLLEPRTYSEAQGIADHLKGRRAVVINLQRMSTDQAVRIVDFLSGTVYAIGGDIQKIGPKTFMCTPENVDIVGAISELFGEEEETNIKRWLEHHHHHH | not failed |
| MSWTVVYSAQAKQDLRNIFEYIAHSLCSPDAAKSQTRRIMAEIHSLDEMPLRYRIYDDEPWRSQGLRFFPVDYYLVFYLPVASANTVKIVRIMYGGRDVKKHLEEELLEHHHHHH | failed |
| MSYEFYGKTEQEAIKKAMRDLELKEGEFDVEILDKERVGFLFKKEMIKIRVSPHAKEVKKDDFEIKIGDEICDKILEFVKEMLIKMGYSVHLTIEPKEGGYVKISIETDSPNILIGREGKNLDSLQLLTNVYASKLIGENGAFNRVILDIGDYRERFKSRFINLAINSFHKVKRTRRSILLPSMNPFERRIVHTTLNRYSDIKTESEGDGNIKRIRVSYVRNNRYGINNSRGYQKRDIGFKK | failed |
| MSYLEYTVKSTPSGLRKILYMNWPLTLLLISVASAGFLMLYSVAGGSFSPWAEPQIKRFMAGLVVMTAVAMVPIWFWRNMAAVAYGGSLVLLVMVELFGAVGMGAQRWIDLGFMRLQPSELTKITLVMVLAAYYDWLPGKKTSRPLWVLVPVLIILVPTALVLKQPDLGTAILLLSAGGALMFLAGVHWAYFAAVIAAGVGLITAVFKSRGTDWQLLKDYQFRRIDTFLDPSSDPLGAGYHITQSKIALGSGGWSGRGFMQGTQSRLNFLPEKHTDFIFTTLAEEFGFIGGISLLSLYALIIAFCVATALATRDRFSSLVTLGIAVNFFLFFAVNMSMVMGLAPVVGVPLPMVSYGGSAMLVLLVAFGLVHSAHIHRPR | failed |
| MSYLLRSDPVSRIHPEPQSLTSFDHFDLLPDSLLLLIFDKVADVKDLGRCCIVSRRFHSLVPFVENVLVRVDCVISDDDSSSSDENHRFSLNTASISDAGGAGGSFSALFRLVFAPIFKPFQMLGQILGPKRSSSSFDASFSAINDEIGVTHHSPTQVLKNFGEIRFLKIELPTGELGIEDGILLKWRADFGSTLDNCMILGASSVIQSNSVKNHENSVDEDNGNIPESFYTNGGLKLRVVWTISSLIAASARHYLLQPIINEHKSLDRLVLSDADGQGVLCMNREQLEELRVTPLSASSASKRTLVPALNMRLWYAPELDLPDGTVLKGATLVAIRPSESKKEVCDASWLSDAFEEPFGTVAKMLIKRRTYCLEMNSF | failed |
| MSYNVAILMSTYNGMDYLREQIESIRSQTYKQWNLYIRDDGSSDNTIDLIKTFVHQDTRIHFINADKQVNRGVKRSFLNLLSSVKADFYMFCDQDDYWLPNKVKLTLDAMISDYHNKPRLVFTNMNLVDSNLKVLDKASLSAVNISYWTSKDQLMFDNIVTGCTVMINNQLKQYVFPISAKKIVMHDWYIAQLASQLGDIQYVTDPTILYRQHESNQVGVNKSLFGKVKKLARFNDFQTGVILQISQGRLTQKKSQVVFSKTTQAFLNWNFTCPLILKVLPIIQNNFKKHTWPGTIALNLALLRRKKS | failed |
| MSYRGLPAMTRNDLTIYDDVAAQWWSDDIRWVRTLKAMVPGRLAFFDRKIDWRDKRVLDLGCAGGFMAEALCERGAIVTGIDPAAQAIDAAREHAELDGHDIRYDVGKGETLPYADDSFDAVVCVDVLEHVEDLDLVLSEVARTLVPGGMFFFDTINRNPLARFATITMAEDILRLLPKGTHDPDMFIKPGELHAALGRAGFVPGR | failed |
| MSYSPSLKEIIAILQKYTSKNYQSNCKTRPDGKLELSLNGVFEEIVKTPGKTRYVTHKQLDQKLKDFKQDLMVELHDTFATKTDLKESEARINQKLEALIQIVMVQGEQIKVHGEQINKLTQAVEKQGEKIEAQGQQIQKVNETLNFVVESLGSIHKRLDSMEGRLDSMENRLDKLESKLEHHHHHH | not failed |
| MSYVLLLLGFALLIKGADFFVDGSSSIARLLNVSPLLIGLTIVAFGTSSPEATASIIAALNGNPDVALGNVIGSNMFNITLVVGLTALLSPLIVTNATLRKEIPFTLLASIALYIFINDQMIEGAVESTLSRSEGLILLLIFCVFLYYIFEVARTSPREQKIVQDFAIKPTWRKNIFLSILGLAMIIGGGELVIRHSTAIAFSHGMSETLVGLTIVAIGTSLPELVTSLTAALKKESEIALGNIVGSSIFNIFFVLGTAATITPMHVDSRVVVDLLLLIFLTLLLLVFSRTRYTVGKYEGLILASFYIGYMVYIIWRN | failed |
| MTAAGFNSILCLRQLVRLNRRQYSAPAKSVLSGSQTNDQATPPPTSKSADKMRGWQLHNYGDIDELQLSEMLKIPQIRCSNECLVRIRATAVNPIDLAMLRGYGATVLNKMRCQPGDGIEFPLILGREFCGELVQTGMGVSLPLGSRVWGVVPLQATIGSHAEYVAVPSYCLAPAPKELDDYEAASVLYAGLTAWSGLYITGGLGGPCGATTASGGGAHKRVLVLGGSGGVGTLAIQILKSQKVQVLATCSENAIEMVRNLGADLVVDYNNPQAMEELCKYAPYDIVLDCAGQGGQKAAESKYDFRQYITFSSPLLANIDKQGLGVGALKNVFDLFQTNVRSVTQRGGLVKWGFFSPAPQGIQFLQKLVEQRKLMPLIDSSYGFSELPKAFEKMKSGHLRGKIVVKLREETGD | failed |
| MTAAILVTGATGKLGQRVVNRLLQKQAKVRVLTRRREDALKLWGDSVDIAEGNFSDPASLKGASRDVDRVFLLSPIGKTLAADQNAVVDAALSAGVSQIVKLSGSDWTLKNAARSISGTAHAAVEKHLAETGIAHTVLRPNAWMQVALEPVVAALRNGEDVPARFGNAAVSFIDADDIADVAVEALSASAPPAGTLVLTGHEALAALGIARIAARILHRPVGVSHQSASTFPAHIGGFEQKAIAEFGQLIGEGLAASTTDIVEQIIGHPPRSVENYLRARLAVAQQGDHSEGEKTWR | failed |
| MTAALSSNFLLVAFFLYLAATIFYAVSIMGKKWRNKEGEMKGNRWGTFGYYSAIIALLFALGYFITRWMVAGFAPVSNMFEYVTFFGICIGLAFVIINAIYRSNILGLFTMPTVMLMIAYASVFPSEVAPLIPALQSNWLALHVTTVALGQGILAVSFASGLVYLIRTIDYSIQSWKTFWLEFILYSVITVVGFILITYTFQAMNYEAKFNYVNENDVEATMEYHLPPIVGPHEGQLISETGNQPLVNMPAWIKSDQLNTVIWSFLVGLVLYLLLYLVFRKPVGAILQPIVKRVSPQLVDEISYRAIAIGFPVFTLGGLIFAMIWAQIAWTRFWGWDPKEVWALITFLFYAAYLHLRLSKGWHGERSAWLCVIGFAIIMFNLVFVNLVIAGLHSYAGGM | failed |
